Test results reported in patent publication US20060252697A1 (ANTYRA, published 2006).
Where no end group is shown, it is not given here.

What was measured:
[1] = target: rat growth hormone binding protein (rGHBP) (rat) (UniProt P16310); assay: TRFD, ED50 of specific binding of biotinylated ligand to rGHBP-coated wells
[2] = target: rat growth hormone binding protein (rGHBP) (rat) (UniProt P16310); assay: TRFD competition on rGHBP-coated wells, vs. bP#447 (SEQ ID NO: 11)
[3] = target: rat growth hormone binding protein (rGHBP) (rat) (UniProt P16310); assay: TRFD competition on rGHBP-coated wells, vs. bP#418 (SEQ ID NO: 12)
[4] = target: rat growth hormone binding protein (rGHBP) (rat) (UniProt P16310); assay: TRFD competition on rGHBP-coated wells, vs. bGH
[5] = target: rat growth hormone binding protein (rGHBP) (rat) (UniProt P16310); assay: phage ELISA competition on rGHBP (100 ng/well); blocked: H5 phage
[6] = target: T1, rat growth hormone binding protein (rGHBP) (rat, UniProt P16310 19-265); assay: phage ELISA competition on rGHBP (100 ng/well); synthetic peptide against H5 phage
T1 construct: extracellular domain; also called rat GHBP; soluble rGHBP
T1 sequence (looked up): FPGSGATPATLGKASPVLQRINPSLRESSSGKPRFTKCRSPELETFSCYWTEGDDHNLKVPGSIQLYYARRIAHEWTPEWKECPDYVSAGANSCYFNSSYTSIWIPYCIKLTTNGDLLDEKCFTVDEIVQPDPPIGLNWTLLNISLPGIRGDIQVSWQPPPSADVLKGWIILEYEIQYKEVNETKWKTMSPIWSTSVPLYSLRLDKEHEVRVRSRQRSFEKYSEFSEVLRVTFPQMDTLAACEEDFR
Procedure: Wells were coated with rGHBP (100 ng/well) and blocked as described. […] The peptides included two lysine residues added to the C-terminus of the sequence shown. Phage binding was detected with HRP-anti M13 phage antibody. Number and sequence of competing peptides are detailed on the right of figure. Control binding=binding in absence of peptide.

[7] = target: T1, rat growth hormone binding protein …; assay: phage ELISA competition on rGHBP (100 ng/well); synthetic H5 peptide against H5 phage
Procedure: Wells were coated with rGHBP (100 ng/well) and blocked as described. […] Phage was detected with HRP-anti M13 phage antibody and reported at OD₄₀₅ as described.

[8] = target: T1, rat growth hormone binding protein …; assay: BIAcore, bPeptide binding to rGHBP, appKD 1
[9] = target: T1, rat growth hormone binding protein …; assay: BIAcore, bPeptide binding to rGHBP, appKD 2
[10] = target: T1, rat growth hormone binding protein …; assay: TRFD, ED50 of specific binding to rGHBP-coated wells
Procedure: (§1) rGHBP (50-200 μg/ml in 50 mM NaHCO₃) was coated onto low-fluorescence MaxiSorp (Nunc) plates (100 μl/well) overnight at 4° C. The plates were blocked with PBS containing 2% non-fat milk and 0.05% BSA for 2 hr at room temperature, followed by three PBS washes. […] Ten microliters of the 10× concentrated material was added to the plates and incubated at room temperature for 1 hr to overnight.
(§2) The plates were then washed five times with Tris-buffered saline (pH 7.5) containing 0.1% Tween-20 (TTBS). To each well, 100 μl of europium-labeled streptavidin in DELFIA assay buffer (100 mM Tris-HCl, pH 7.8; 150 mM NaCl; 0.5% BSA; 0.05% bovine Ig; 0.05% NaN3; 0.01% Tween-20) was added and incubated for 1.5 hr at room temperature. The plates were then washed five times with TTBS and tapped dry. Subsequently, 100 μl of DELFIA enhancement solution (100 mM acetone-potassium hydrogen phthalate, pH 3.2; 15 mM 2-naphtyltrifluoroacetate; 50 mM tri(n-octyl)-phosphine oxide; 0.1% Triton X-100) was added to each well, and the plates were shaken for 10 min at room temperature.

[11] = target: T1, rat growth hormone binding protein …; assay: TRFD, ED50 of specific binding of biotinylated ligand to rGHBP-coated wells
Procedure: Wells were coated with rGHBP (100 ng/well) overnight as described. ED₅₀ and IC₅₀ were calculated from analysis of specific bLigand binding to rGHBP. Competitors were added 1 hr prior to addition of bLigand as described.
as §1, §2

[12] = target: T1, rat growth hormone binding protein …; assay: TRFD
[13] = target: T1, rat growth hormone binding protein …; assay: phage ELISA, rGHBP 100 ng/well
Procedure: Alanine replacement for single or multiple amino acids is represented by “a” and for cysteine by “X”. FIG. 4A illustrates the binding of wild-type (WT) and mutant phage on wells coated with milk (2%), FcMAb (100 ng/well), rGHBP (100 ng/well), or MAb specific for the E-tag epitope (100 ng/well). FIG. 4B illustrates the ratio of mutant phage binding to rGHBP versus anti-E-tag MAb coated wells.
For this analysis, phage were input at 10¹⁰/well. Wild type (WT) and mutant phage were tested on wells coated with milk (2%), FcMAb (100 ng/well), rGHBP (100 ng/well), or MAb specific for the E-tag epitope (100 ng/well) (FIG. 4A). Detection with HRP-anti M13 phage antibody was done as described. In FIG. 4, alanine replacement for single or multiple amino acid is represented by “a” and for cysteine by “X”.

[14] = target: humanized rat growth hormone binding protein (‘hu’GHBP) (rat (humanized by one substitution)) (UniProt P16310); assay: phage ELISA on ‘hu’GHBP-coated wells, competitor human GH (+hGH, 1 µM)
[15] = target: humanized rat growth hormone binding protein (‘hu’GHBP) (rat (humanized by one substitution)) (UniProt P16310); assay: phage ELISA on ‘hu’GHBP-coated wells, +BSA (1 µM)
[16] = target: humanized rat growth hormone binding protein (‘hu’GHBP) (rat (humanized by one substitution)) (UniProt P16310); assay: phage ELISA on ‘hu’GHBP-coated wells, no competitor

In the case of “biotinylated growth hormone (bGH) (ligand)”, the EC50 [1] is reported as 0.02 µM.

For “growth hormone (GH), species not stated (ligand)”, the IC50 [2] was 0.0004 µM, the IC50 [3] was 0.002 µM and the IC50 [4] was 0.005 µM. For the same molecule, the IC50 (read off the curve) [5] was 0.005 µM.

B1: GHBP-H5 peptide (H5WT) (peptide)
peptide: DYKDLCQSLGVTYPGWLAGWCA
modifications: cysteine pairing not given here; also: biotinylated in some formats, position not given here
notes: also called H5 phage
B1 was tested, and the “IC50 (read off the curve)” value [6] was roughly 1 µM, the “IC50 (read off the curve)” value [7] was roughly 1 µM and the Kd [8] was 1.3 µM. It also gave a Kd [9] of 3.5 µM.

In the case of DYKDLCQRLGVTWPGWLAGWCA (cysteine pairing not given here; also: biotinylated, position not given here, H5 mutant, synthetic) [peptide #443], the “IC50 (read off the curve)” value [6] is reported as roughly 0.4 µM, the Kd [8] is reported as 0.6 µM and the Kd [9] is reported as greater than 10 µM.

B2: peptide #447 (peptide)
peptide: DYKDLCQRLGVGWPGWLSGWCA
modifications: cysteine pairing not given here; also: biotinylated in bP form, position not given here
notes: H5 mutant from the secondary library, synthetic
With B2 the “IC50 (read off the curve)” value [6] was roughly 0.09 µM, the EC50 [10] was 0.7 µM and the Kd [8] was 0.16 µM. For the same molecule, the EC50 [11] was 0.6 µM, the “fold better binding than H5WT or bP#445” value [12] was 10 fold and the Kd [9] was 2.9 µM.

B3: peptide #418 (peptide)
peptide: DYKDLCQSWQVTWPGWLAGWCA
modifications: cysteine pairing not given here; also: biotinylated in bP form, position not given here
notes: H5 mutant from the secondary library (Y9 to W, L5 to W, G6 to E), synthetic
For B3, the “IC50 (read off the curve)” value [6] was roughly 0.1 µM, the Kd [8] was 0.15 µM and the EC50 [11] was 0.8 µM. The “fold better binding than H5WT or bP#445” value [12] was 10 fold and the Kd [9] was 0.67 µM.

DYKDLAQSLGVTYPGWLAGWCA (H5 phage mutant) [X---C (first C crossed out)]: no binding (tested: 10^10 phage/well) [13].

DYKDLAQSLGVTYPGWLAGWAA (H5 phage mutant) [X---X (both C crossed out)]: no binding (tested: 10^10 phage/well) [13].

For DYKDALLHRSRCVRWGKWVCCLPPVGVGGAQANQGMSVQRFRHC [clone HH peptide], the ELISA signal (unit not given) [14] was 0.35, the ELISA signal (unit not given) [15] was 0.37 and the ELISA signal (unit not given) [16] was 0.37.

B4: peptide #445 (peptide)
peptide: DYKDLCQRLGVGWPGWLAGWCA
modifications: cysteine pairing not given here; also: biotinylated in bP form, position not given here
B4 showed an ELISA signal (unit not given) [14] of 0.12, an ELISA signal (unit not given) [15] of 0.11 and an ELISA signal (unit not given) [16] of 0.14.
